The target in the experiment is WT ACE2(740)-Fc (human, UniProt Q9BYF1 18-740). Put plainly: BLI.

B1: HCoV-NL63 spike RBD (domain or fragment)
chain: QHTDINFTATASFGGSCYVCKPHQVNISLNGNTSVCVRTSHFSIRYIYNRVKSGSPGDSSWHIYLKSGTCPFSFSKLNNFQKFKTICFSTVEVPGSCNFPLEATWHYTSYTIVGALYVTWSEGNSITGVPYPVSGI
The molecule B1 had a dissociation constant (Kd) of 22 nM.
